Test results: a protein production outcome set (Wang et al. 2014)

Assay: label from the status in PepcDB records

Sequence	protein production
MLQRIGLIFLHNIVVVSNCFYFQAFLDEFTNWSRINPNKARIPMAGDTQGVVGTVSKPCFTAYEMKIGAITFQVATGDIATEQVDVIVNSTARTFNRKSGVSRAILEGAGQAVESECAVLAAQPHRDFIITPGGCLKCKIIIHVPGGKDVRKTVTSVLEECEQRKYTSVSLPAIGTGNAGKNPITVADNIIDAIVDFSSQHSTPSLKTVKVVIFQPELLNIFYDSMKKRDLSASLNFQSTFSMTTCNLPEHWTDMNHQLFCMVQLEPGQSEYNTIKDKFTRTCSSYAIEKIERIQNAFLWQSYQVKKRQMDIKNDHKNNERLLFHGTDADSVPYVNQHGFNRSCAGKNAVSYGKGTYFAVDASYSAKDTYSKPDSNGRKHMYVVRVLTGVFTKGRAGLVTPPPKNPHNPTDLFDSVTNNTRSPKLFVVFFDNQAYPEYLITFTA	failed
MPLFSQHTARFSPDVPLEGTSSRELLKRYQPLETLATGGFGSIEICRDTHLRRRVAIKRIPLINGAGMPASDIMDVLREAHTAAMLQHPNIVQVIDFTHDTAYAYLVMEYVDGMSLAEFLHRVDGHSLTFDEAAAIADALGQALTFAHSNGVLHLDIKPANVLIDHSGNVKLTDFGMARLSSAGGFGGSRGGTIGYMPPEQLDIETGTVDERADVFALACVIYEGLCGSAPFMAATPADSLGHIIGGATYPSELIPHFPPGAESALMSALSPMPQDRPNSIEAFCDQLLAGLGSVREGRRSLEQMVGELSDDEQELDDIEPSHYEDDAIEVDPALGWAGTRWSHARDYTMRTISALTCGTFSFLLMQTAGVAALPGLVIAAIAIGAAAGLAPQIGSAISAVGFLVLMANATMQAQGILSMLPVAVIFAAAMSGWWIAWGRTETAASATLTCALALGCLTGNTFLAAGVAAGVASFWLGPASAAAATGMGALFARLATVALSAGGVLGLGNVAAALGDPLLWAAFVLVAATAAASSALLNVHAKRANQGSNLAAIAAIAVTGIGCAAASCLAHHMEIASLAAAVIAKAAVAGILSSIIVGICLYLLGYQRTYTESDLS	failed
QAPLRIECTDISHIQGTDVVASLVVFEDGLPRKSDYRRYRVKEAAGDGHSNDVASIAEITRRRFLRHNQDKLAVPEAEEFDGSTFSDEKVEEMSTDARRFAYPPQIFIVDGGAPQVAAAQEVFDELGIVDVVLIGLAKRLEEIWLPGDPDPVILPRNSQALFLLQQIRDEAHRFAITYHRQQRSKRMRVSELDSIKG	failed
MPKRRGHGEGTVYQRPDGRWTAQITVGIDHEGKQRRLTLYGKSKKEVLEKLTQALYQQQNGGFIEPSKITVEQWLNRWLTDYAKPHLRQSTWESYETVLRLHVIPTLGSIPLKKLQPADIQRLYASKLESGLSPTRVRYIHVVLHEAMSQARESGLLLQNPTEAAKPPRHPKKKVQPLNPEQVKRFLETAKQDPLYPAFLLALGTGLRRGEILGLRWQDLDLQKGILQVRQSLIRTREGLKFEEPKTEKSRRQIPLPPSVVAALKRHKAWVNQNKLILGPDYEDHDLVFPVENGRPRDPKGFAEYFNRLLDKAGLPHIRLHDLRHTHATLLLLEGVHPKVVQERLGHSTVSITLDIYSHILPGLQEKAAERIDGLLQPKENPSPKEGTIK	failed
EGQPLTRLKHMEPRLMAELGGLCAKLDKALAHFDHPGLARTLQWDPQHAGALIDHLLPVLQDGGQRARIEHATRQANEHLMPLVDQLPSQAVHLDITDDNTVWARDAQRQWQLQGVIDFGDLLRTWRIADLSVTCAALLHHAEGDPLRILPAVQAYQALNPLTEAELRALWPLVLNRAAVLVLSSEQQLTVDPGNQYTRDNIAHEWEIFDTATAVPFALMEAAILQAAGLQPAAP	failed
MSLETKTPNDAKNQVQTHERMKTSSEHVTPLDFNYPIHIVQAPQNHHVVGILTPRIQVSDNLKPYIDKFQDALINQIQTIFEKRGYQVLRFQDEKALNAQDKRKIFSVLDLKGWVGILEDLKMNLKDPNNPNLDTLVDQSSGSVWFNFYEPESNRVVHDFAVEVGTFQAMTYTYKHNNSGGLNSSNSIIHEYLEKNKEDAIHKILNRMYAVVMKKAVTELTKENIDKYREAIDRMKGFKSSMPQKKEGHHHHHH	not failed
MEQNSGTSSASGRALFPLYAITFIGTLGFGIILTFLVFLVTDYGGNALVYGILASTYPAFQLIGAPVLGRWSDLYGRKKILLLSQIGTMLAWIIFFAALFFPVIPLIEVRSDLLGTFTITLPLLILFLARALDGATGGNVSVANAYLADLTSEEERNKNYGRMSVASNLGYVFGPAIAGVLGTTAYGEILPVSAALVISIIGTLIVLFLLPDSRPCAIEEYPESTGIRKILGQEQKECYQVEAGSKITFREVFKLEYIPFMLVVYFLIFLGFNIYYTAFPIFAVVALEWSPAELGIYFSVISALMAFVQGPVLAKLARRYRESIMVVGGGFILGLQFILIVSGDYLLLYLAAVFFAFGNGIMWPSILSILSKFAGKKYQGSVQGFAMSASSLASIIGLLAGGFLYTQFGVIAFLIAAAIIYLVVFLSFRLLRIEKEKLIETEAAKTPV	failed
MLQYGQKSFLIVDDFTDFRTSTRSMLRELGVRDVDTADSGEQALRMCAQKRYDFILQDFHLGDGKKNGQQVLEDLIIDKHISHECVFIMVTAESSQAIVLSAIEHEPDAYLTKPFNRVGLAQRVEKLFQRKTLLKPILQALDRNRPAEVLAACAELCKKDPRLAPLCLRYRADALRNLNRFEELEKFLKAILASRPQPWVYAALGALMHKRGQNAQAQGVYEQALKAFPIMPGLYDGMAEVLVAQGDTRRAQNLLEEAVRLSPLSVRRQSTLGKLALENEDFESASKAFRHAVNQGQSSRYKDAENNLGLVQALMSKNAGFGLDARTRVEINTTLSEVAKENPEDQGLQVRARMMKAASLQQAGDPETAGKLTEQAIQRLDKMNQFFSVDSALTVAAQLQAMGQEAAAIGVLKNCVESYGDDPKVMEKVGKLTDDPSVLNAITEAVTLNRQGVRSYQGGQLGEALQLFRKALGLQPKNISIALNTAQALLRIGGDNPQPAIMQECRDALTSVAGIPASDNRYDRYRKLHIRVFGA	failed
MHLPHFALSSVLSLTLCAIPNLGFASSNQTEDSTQARPTWLRDIALSPDGQKIAFTYAGQIWLVPAQGGDAVALTESGVYSETPIWSPDSQSIAFTADRYGLGDVFILSIQGGESRRLTYHGAKDIPYAFSADGQQLYFSSRRLGDDKANANVKQGSFMAQLYSVPAAGGREQRVLPIAISDLAISPSHSDILYTNQPSDEQPWRKGALSDATRDIWQWSPLTGKHTQITTFRGEDRNPVWSADGSSMYYLSEQAGSFNVWQQRFDGSEPVQITDHQKLPVRFLSASLQGDLAYGFDGEIWRLKAGAKQAEKVPVSIRRSAMPDGRHNVNFNLEATEMVVAPNAAEVAIVARGDVYVVSLLSGLTQRITDTPEAERDVSFSSDGYRLIYASEREGSWNLYQSYVNDGGKSFSSSLDIIEEPVLTTEQDVIQPLYSPNLKRIVYRENRNTLKVYDIEQDKTYTLLDAHALYSYFDKDLSYQWSPDSEYIVTRDRAMSNGDIQLLKFDGSEAPINLSQSGFSEFAPQFSADGQWVYWLTDAKGLRDIDDMVVQYDVYGVALNREAKFNFNKTQEQLWLEEEIAAEKNLGPGQNPPAELTVVENKGLKQRTMRMTPTSLNIIFKHLTHDNQALIIAYQLGDSVQISEINLRSGEMTALFNRLSEDAALLAMASDDASLLIMGEHGIENLNVLTGESKFVRYEAKANFDFRAEIRLLV	failed
MFGGAKGGHFGVPPAGYSGAVPQSEAGTKAGPAGGRPADTMWRVRCKAKGGTHLLQGLSSRTRLRELQGQIAAITGIAPGSQRILVGYPPECLDLSDRDITLGDLPIQSGDMLIVEEDQTRPKASPAFSKYGAPSYVREALPVLTRTAVPADNSCLFTSVYYVVEGGVLNPACAPEMRRLIAQIVASDPVLYSEAILGKTNEDYCDWIRRDDTWGGAIEISILSKFYQCEICVVDTQTVRIDRFGEDAGYTKRVLLIYDGIHYDPLQRNFPDPDTPPLTIFSSNDDIVLVQALELADEARRKRQFTDVNRFTLRCMICQKGLTGQAEARDHARETGHTNFGEV	failed
MAKFIMVVGTSSNSGKTVLVSGICRMLSNKGYKVAPFKSQNMSLNSRVSVEDGEIAVAQYTQAMAARAEPSVHFNPILLKPKGNFVSQVIVHGNPYEDKDYNEYRSKKDDFLVKIKESIDYLDKNYDYVVIEGAGSCCEINLLNDDIANLKVAEIAGADAILVSDIDRGGVFASIYGTVQLLPENWKKLLKGFVINKFRGNIDVLKDGFEKIEELTNIPVIGTIPYDETLVLPEEDSQALDGKRVFGNLKSPIEVNVVKFSKIANFTDVDPFSSDCLMKYIDFNENITGDILILPGTRCSTVEMDLMKKYGMDKKILEFVENGGIVLGICGGYQALGKMLFDEDFSEGDVGTISGLGLFDMETTFGNKKAIKNSTGKISIFNQNFDVSGYELHEGYSVSNETPLISLSKGFGNCGDSYDGSFKMIGDSYIFGTYFHGILENFEFRNYLVNLARSKKNLSKIEDDTYAELFNENMDKLSKIIEENLDFSKIIG	failed
MAMEIGEDEWKVCCGSSEFAKQMSTSGPLTSQEAIYTARDIWFNQVNVTDWLEAFSAHPQIGNTPSPSINSDFARRSVSEQSTAFATTSASALQELAEWNVLYKKKFGFIFIICASGRTHAEMLHALKERYENRPIVELEIAAMEQMKITELRMAKLFSDKAKVISETDSSSSPVSTKPQDRLRIIGGHLNVAAEAKAPKRSRPPITTHVLDVSRGAPAAGVEVHLEVWSGTTGPSFVHGGGGVWSSVGTSATDRDGRSGPLMDLVDALNPGTYRISFDTAKYSPGCFFPYVSIVFQVTESQKWEHFHVPLLLAPFSFSTYRGS	failed
MTDDRPPLPPFTRATAAQKVQAAEDAWNTRDPHKVSLAYSPDSVWRNRDTFVTGRAAIVELLTAKWAREREYALRKDLWAFDGNRIAVRFQYECQDADGQWWRSYGNELWEFDEHGLMTRREAGIHDVRIEERERRILGPRPEAERGRSFPVQ	failed
MSAHLLIILPLIIPFVAAVAALLFARWPTVQKGINIVSMGGILAASLGLLSRITEQGIQVTTIGDWPVPFGIVFVVDHLSVVMLIVSAIIGLAVAVYAVPDVDDARVRFGFYPFFNLLMIGINGAFLTGDLFNLYVWFEVMLISSFVLIVLGNTDEQLAGAVKYVVINLVSSLLFLSGVGLVYGMTGTLNMAELSLALSEVGQPGLVTVVAMLFLISFGIKAALFPLFFWLPASYHTPPASVSAFFAGLLTKVGVYALFRVFTLLFTQDVGYTHTLLLWGAGLTMVTGVLGAAVQNDFRRVLSFHIVSQIGYMIMGLALYTPLAILGGVFYIVHHIIVKANLFLVSGVAKRLRGSFSLKSLDGLYAYHPWLAALFIIPAFSLAGFPPLSGFWAKLILTIAGIETGAYWIVTVAVAVGLFTMFSMTKIWVKAFLPGGGGDLADAVSSMGLGTRVMYVPIAGLAALTIMISVFAGPVYDLAERSADELYNSSEYVEAVLNHEKSAADAGPRPGVDGRTGRVHAR	failed
MGQMISEMRHGVRRPVWHDLAERFDEPRECLASFLALEAAEVLAGEKPANLIGIANRTRACGRNLYVLWKQWGAMVLGESGLAVRELSDRGDSLLLLLYRPEALEALLRRPSASAVLARAGYGAATGLDEVLTELSTRIDGDRFPHEIGVFLGYPLKDVAAFMGLVRIPFACQGPWKIFGDPRESLRLAEVFRCCRARMAERLNRCTSALDCLADGSPRPVVGFDEIESHSYGGKAMCIAVIGGMDRLEKHYREEAVRSGVELRMFSQSENNIAVKLKRFDALVIFTNKVSHRVKNEAMAVAKQNGIPVFMHHSCGVCTLRDCLSCLTATVAHVGESDRPDLGRRKNHS	failed
